Data set [1] addresses T1, ENT2 (Homo sapiens, UniProt Q14542).
T1 sequence (Q14542 1-456): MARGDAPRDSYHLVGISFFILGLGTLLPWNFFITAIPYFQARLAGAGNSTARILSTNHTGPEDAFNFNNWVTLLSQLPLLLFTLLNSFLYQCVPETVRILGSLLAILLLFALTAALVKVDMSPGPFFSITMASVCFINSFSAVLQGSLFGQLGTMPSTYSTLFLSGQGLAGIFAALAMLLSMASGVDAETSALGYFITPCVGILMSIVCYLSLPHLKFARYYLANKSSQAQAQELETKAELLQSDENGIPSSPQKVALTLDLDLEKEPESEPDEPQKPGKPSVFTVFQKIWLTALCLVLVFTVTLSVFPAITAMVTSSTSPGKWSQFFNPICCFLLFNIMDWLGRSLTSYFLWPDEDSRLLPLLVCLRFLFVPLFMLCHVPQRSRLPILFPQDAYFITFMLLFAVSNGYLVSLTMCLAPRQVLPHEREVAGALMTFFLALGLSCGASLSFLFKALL
To be noted: cited from earlier work.

For data set [2], the system named is ENT3. More on the design: method as in PMID 34144123. To be noted: read-out: km of ENT3 for Ado transport; cited from earlier work.
Substrate in data set [3]: C[C@H](CCC(=O)O)[C@H]1CC[C@H]2[C@@H]3CC[C@@H]4C[C@H](O)CC[C@]4(C)[C@H]3C[C@H](O)[C@]12C
Nature of the data set: Radiolabeled BA transport in ENT2 mRNA-injected Xenopus oocytes. In kind it is cell-based, human. To be noted: pH 7.4.

Substrate in data set [4]: C[C@H](CCC(=O)O)[C@H]1CC[C@H]2[C@@H]3[C@H](O)C[C@@H]4C[C@H](O)CC[C@]4(C)[C@H]3C[C@H](O)[C@]12C
The description is as above. The conditions noted are these: pH 7.4. In kind it is cell-based, human.

Setting [5] is: other: printed in picture Fig. 2B.

Where “and” joins values, the source holds several entries; their conditions need not be identical. Identical values can stand only once. Like-named read-outs stand apart in the source and are kept apart here.

For orientation: Km means the concentration of substrate that gives half-maximal velocity. For the molecule `Nc1nc2c(ncn2[C@@H]2O[C@H](CO)[C@@H](O)[C@H]2O)c(=O)[nH]1` [guanosine], the Km in data set [1] (cloned ENT2-expressing ENT-deficient PK15 cells, read-out: km for guanosine, ENT2) was 2700 µM.
Regarding `Nc1ncnc2c1ncn2[C@@H]1O[C@H](CO)[C@@H](O)[C@H]1O` [Ado, adenosine], the Km in data set [1] (read-out: Km of ENT2 for Ado transport) is roughly 100 µM; in data set [2], 2000 µM.

B1: ENT2 (Homo sapiens) (protein)
chain: T1 sequence (Q14542 1-456)
notes: The complete ORF of ENT1 (amplified using forward primer); expressed in transfected cells; host or cells: Xenopus laevis oocytes injected with in vitro-transcribed capped mRNA from pOX-hENT2
B1: the Km in data set [3] (other: oocytes, Fig. 2B) was 491 µM; in data set [3] (setting [5]), 500 µM; in data set [4] (other: oocytes, Fig. 2B), 195 µM and 200 µM; in data set [4] (setting [5]) it was 200 µM.

The values are drawn from paper PMC12152883, “Bile acids inhibit equilibrative adenosine transport to alter adenosine receptor signaling in cholestasis” (The Journal of Biological Chemistry, 2025).
